Assay [1] deals with NbPI4KII-mGFP (Nicotiana benthamiana).
The target of assay [2] is Capsicum annuum phosphatidylinositol 4-kinase type II (CaPI4KII), yeast two-hybrid fusion (Capsicum annuum).
The target in assay [3] is NbPI4KII-mGFP (Nicotiana benthamiana). The experiment in a line: FRET or BRET; FRET in agroinfiltrated N. benthamiana leaf epidermal cells, 3 dpi; mGFP donor, DsRed acceptor; Olympus FluoView FV1000.
Assay [4] has the same target. This is another data set of the same source.

Substance “ChiLCV Rep1-180-DsRed (domain or fragment)” gave a percentage of cells with NbPI4KII-mGFP exclusively inside the nucleus when co-expressed with Rep1-180-DsRed (N = 16) in assay [1] of 87%. This substance displayed a percentage of cells with CaPI4KII-mGFP restricted to the nucleus when co-expressed with Rep1-180-DsRed in assay [2] of 61%. In assay [3], the FRET efficiency is 43%.

In the case of “ChiLCV Rep1-120-DsRed (domain or fragment)”, the FRET efficiency in assay [3] came to 72%.

Take “ChiLCV Rep181-361-DsRed (domain or fragment)”: the percentage of cells in which NbPI4KII-mGFP was redirected into the nucleus when co-expressed with Rep181-361-DsRed (N = 17) in assay [1] stood at 78%. The same substance showed a percentage of cells with CaPI4KII-mGFP restricted to the nucleus when co-expressed with Rep181-361-DsRed in assay [2] of 41%. This substance gave an FRET efficiency in assay [3] of 76%.

The substance ChiLCV Rep-DsRed (natural protein) registered a percentage of cells with NbPI4KII-mGFP only inside the nucleus when co-expressed with Rep-DsRed (N. benthamiana epidermis, N = 19) in assay [4] of 63%. The same substance registered an FRET efficiency in assay [3] of 47%.

The record behind these values is publication PMC6792133.
